# Laboratory results from the supplement of paper PMC10567573.
# B1: MLL5 (parent)
# chain: DCMGIDRQHIPDTYLCERCQPRNL
# Variants of: B1
# Experiment: protein stability index of a GFP-peptide fusion (GPS, HEK-293T) (PSI 1-6); higher = more stable
# Conditions: c terminus: a fixed tail appended
# 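Further: lentivirally expressed fusions sorted by FACS into six bins by GFP to DsRed ratio, PSI derived from sequencing read proportions per bin multiplied by bin number.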
row,Variant,protein stability index
1,DCMGIDRQHIPDTYLCERCQPGNL [R22G],3.28
2,DCMGIDRQHIPDTYLCERCQPDNL [R22D],3.42
3,DCMGIDRQHIPDTYLCERCQPVNL [R22V],2.67
4,DCMGIDRQHIPDTYLCERCQPTNL [R22T],3.34
5,DCMGIDRQHIPDTYLCERCQPYNL [R22Y],2.49
6,DCMGIDRQHIPDTYLCERCQPPNL [R22P],3.34
7,DCMGIDRQHIPDTYLCERCQPLNL [R22L],3.31
8,DCMGIDRQHIPDTYLCERCQPQNL [R22Q],3.19
9,DCMGIDRQHIPDTYLCERCQPNNL [R22N],2.94
10,DCMGIDRQHIPDTYLCERCQPFNL [R22F],2.35
11,DCMGIDRQHIPDTYLCERCQPHNL [R22H],2.72
12,DCMGIDRQHIPDTYLCERCQPSNL [R22S],3.31
13,DCMGIDRQHIPDTYLCERCQPINL [R22I],2.9
14,DCMGIDRQHIPDTYLCERCQPKNL [R22K],3.19
15,DCMGIDRQHIPDTYLCERCQPMNL [R22M],1.86
16,DCMGIDRQHIPDTYLCERCQPENL [R22E],3.98
17,DCMGIDRQHIPDTYLCERCQPWNL [R22W],1.99
18,DCMGIDRQHIPDTYLCERCQPANL [R22A],3.57
19,DCMGIDRQHIPDTYLCERCQPCNL [R22C],3.66
20,DCMGIDRQHIPDTYLCERCQPRNV [L24V],2.84
21,DCMGIDRQHIPDTYLCERCQPRND [L24D],3.88
22,DCMGIDRQHIPDTYLCERCQPRNR [L24R],2.62
23,DCMGIDRQHIPDTYLCERCQPRNA [L24A],3.55
24,DCMGIDRQHIPDTYLCERCQPRNK [L24K],4.2

row,Variant,protein stability index
1,DCMGIDRQHIPDTYLCERCQPRNF [L24F],2.71
2,DCMGIDRQHIPDTYLCERCQPRNM [L24M],2.69
3,DCMGIDRQHIPDTYLCERCQPRNI [L24I],2.36
4,DCMGIDRQHIPDTYLCERCQPRNC [L24C],3.24
5,DCMGIDRQHIPDTYLCERCQPRNT [L24T],3.14
6,DCMGIDRQHIPDTYLCERCQPRNQ [L24Q],3.51
7,DCMGIDRQHIPDTYLCERCQPRNP [L24P],2.64
8,DCMGIDRQHIPDTYLCERCQPRNS [L24S],3.84
9,DCMGIDRQHIPDTYLCERCQPRNH [L24H],2.91
10,DCMGIDRQHIPDTYLCERCQPRNW [L24W],2.77
11,DCMGIDRQHIPDTYLCERCQPRNN [L24N],3.26
12,DCMGIDRQHIPDTYLCERCQPRNG [L24G],3.73
13,DCMGIDRQHIPDTYLCERCQPRNY [L24Y],2.86
14,DCMGIDRQHIPDTYLCERCQPRNE [L24E],3.44
15,DCMGIDRQHIPDTYLCERCQPRGL [N23G],3
16,DCMGIDRQHIPDTYLCERCQPRVL [N23V],2
17,DCMGIDRQHIPDTYLCERCQPRLL [N23L],2.5
18,DCMGIDRQHIPDTYLCERCQPRTL [N23T],2.61
19,DCMGIDRQHIPDTYLCERCQPRIL [N23I],2.29
20,DCMGIDRQHIPDTYLCERCQPRDL [N23D],3.08
21,DCMGIDRQHIPDTYLCERCQPRSL [N23S],3.07
22,DCMGIDRQHIPDTYLCERCQPRFL [N23F],2.58
23,DCMGIDRQHIPDTYLCERCQPRYL [N23Y],1.94
24,DCMGIDRQHIPDTYLCERCQPRML [N23M],2.83

row,Variant,protein stability index
1,DCMGIDRQHIPDTYLCERCQPREL [N23E],2.86
2,DCMGIDRQHIPDTYLCERCQPRKL [N23K],2.73
3,DCMGIDRQHIPDTYLCERCQPRPL [N23P],3.1
4,DCMGIDRQHIPDTYLCERCQPRQL [N23Q],2.62
5,DCMGIDRQHIPDTYLCERCQPRRL [N23R],1.53
6,DCMGIDRQHIPDTYLCERCQPRWL [N23W],2.49
7,DCMGIDRQHIPDTYLCERCQPRCL [N23C],1.85
8,DCMGIDRQHIPDTYLCERCQPRHL [N23H],2.36
9,DCMGIDRQHIPDTYLCERCQPRAL [N23A],2.09
10,DCMGIDRQHIPDTYLRERCQPRNL [C16R],3.67
11,DCMGIDRQHIPDTYLNERCQPRNL [C16N],3.7
12,DCMGIDRQHIPDTYLYERCQPRNL [C16Y],2.88
13,DCMGIDRQHIPDTYLTERCQPRNL [C16T],3.41
14,DCMGIDRQHIPDTYLHERCQPRNL [C16H],3.58
15,DCMGIDRQHIPDTYLGERCQPRNL [C16G],4.23
16,DCMGIDRQHIPDTYLWERCQPRNL [C16W],2.9
17,DCMGIDRQHIPDTYLEERCQPRNL [C16E],3.65
18,DCMGIDRQHIPDTYLIERCQPRNL [C16I],3.44
19,DCMGIDRQHIPDTYLDERCQPRNL [C16D],3.91
20,DCMGIDRQHIPDTYLMERCQPRNL [C16M],3.7
21,DCMGIDRQHIPDTYLVERCQPRNL [C16V],3.21
22,DCMGIDRQHIPDTYLSERCQPRNL [C16S],3.52
23,DCMGIDRQHIPDTYLFERCQPRNL [C16F],3.13
24,DCMGIDRQHIPDTYLQERCQPRNL [C16Q],3.79

row,Variant,protein stability index
1,DCMGIDRQHIPDTYLLERCQPRNL [C16L],3.36
2,DCMGIDRQHIPDTYLPERCQPRNL [C16P],3.73
3,DCMGIDRQHIPDTYLAERCQPRNL [C16A],3.56
4,DCMGIDRQHIPDTYLKERCQPRNL [C16K],3.41
5,DCMGIDRQHIPDTYLCEKCQPRNL [R18K],2.63
6,DCMGIDRQHIPDTYLCETCQPRNL [R18T],3.15
7,DCMGIDRQHIPDTYLCEECQPRNL [R18E],3.15
8,DCMGIDRQHIPDTYLCEFCQPRNL [R18F],2.87
9,DCMGIDRQHIPDTYLCEYCQPRNL [R18Y],2.23
10,DCMGIDRQHIPDTYLCEACQPRNL [R18A],2.57
11,DCMGIDRQHIPDTYLCEHCQPRNL [R18H],3.18
12,DCMGIDRQHIPDTYLCEGCQPRNL [R18G],3.6
13,DCMGIDRQHIPDTYLCESCQPRNL [R18S],3.12
14,DCMGIDRQHIPDTYLCENCQPRNL [R18N],3.58
15,DCMGIDRQHIPDTYLCEQCQPRNL [R18Q],3.01
16,DCMGIDRQHIPDTYLCEWCQPRNL [R18W],2.25
17,DCMGIDRQHIPDTYLCEPCQPRNL [R18P],3.15
18,DCMGIDRQHIPDTYLCEICQPRNL [R18I],2.9
19,DCMGIDRQHIPDTYLCELCQPRNL [R18L],2.84
20,DCMGIDRQHIPDTYLCECCQPRNL [R18C],2.89
21,DCMGIDRQHIPDTYLCEVCQPRNL [R18V],2.19
22,DCMGIDRQHIPDTYLCEMCQPRNL [R18M],2.74
